Laboratory results reported in the Immune Epitope Database (IEDB).
One block for each sequence: values may come before it.

What was measured:
[1] = biological target: HLA-A*30:01; assay: IEDB peptide-MHC binding, purified MHC/direct/fluorescence; filed as Kd, often an IC50 or EC50 that approximates it; ≥ and ≤ were set here for values at or beyond the usual limits of such assays
[2] = biological target: HLA-A*01:01; assay: as above
[3] = biological target: HLA-B*15:01; assay: as above
[4] = biological target: HLA-B*40:01; assay: as above
[5] = biological target: HLA-B*27:05; assay: as above
[6] = biological target: HLA-A*31:01; assay: as above; details: source organism: Pseudomonas aeruginosa
[7] = biological target: HLA-A*03:01; assay: as above
[8] = biological target: HLA-A*26:01; assay: as above
[9] = biological target: HLA-A*69:01; assay: as above
[10] = biological target: HLA-B*58:01; assay: as above
[11] = biological target: HLA-A*11:01; assay: as above
[12] = biological target: HLA-A*02:01; assay: as above
[13] = biological target: HLA-B*08:01; assay: as above
[14] = biological target: HLA-B*07:02; assay: as above
[15] = biological target: HLA-B*57:01; assay: IEDB peptide-MHC binding, purified MHC/competitive/fluorescence; filed as Kd, often an IC50 or EC50 that approximates it; ≥ and ≤ were set here for values at or beyond the usual limits of such assays
[16] = biological target: HLA-A*02:19; assay: as above; details: source organism: Vibrio antiquarius
[17] = biological target: HLA-A*02:12; assay: as above; details: source organism: Vibrio antiquarius
[18] = biological target: HLA-B*51:01; assay: as above
[19] = biological target: HLA-B*15:01; assay: as above
[20] = biological target: HLA-B*46:01; assay: as above
[21] = biological target: HLA-A*24:03; assay: as above; details: source organism: Vibrio antiquarius
[22] = biological target: HLA-B*39:01; assay: as above
[23] = biological target: HLA-A*03:01; assay: as above; details: source organism: Vibrio antiquarius
[24] = biological target: HLA-A*26:01; assay: as above
[25] = biological target: HLA-A*69:01; assay: as above
[26] = biological target: HLA-B*27:03; assay: as above
[27] = biological target: HLA-A*02:16; assay: as above
[28] = biological target: HLA-A*02:01; assay: as above
[29] = biological target: HLA-A*68:02; assay: as above; details: source organism: Vibrio antiquarius
[30] = biological target: HLA-A*02:03; assay: as above; details: source organism: Vibrio antiquarius
[31] = biological target: HLA-B*18:01; assay: as above
[32] = biological target: HLA-A*24:03; assay: IEDB peptide-MHC binding, purified MHC/direct/fluorescence; filed as Kd, often an IC50 or EC50 that approximates it; ≥ and ≤ were set here for values at or beyond the usual limits of such assays
[33] = biological target: HLA-B*44:02; assay: as above; details: source organism: Yersinia enterocolitica
[34] = biological target: HLA-A*23:01; assay: as above
[35] = biological target: HLA-B*08:01; assay: IEDB peptide-MHC binding, purified MHC/competitive/fluorescence; filed as Kd, often an IC50 or EC50 that approximates it; ≥ and ≤ were set here for values at or beyond the usual limits of such assays; details: source organism: Salmonella enterica subsp. enterica serovar Typhi
[36] = biological target: HLA-A*01:01; assay: as above; details: source organism: Influenza A virus (A/Yokohama/22/2002(H1N2))
[37] = biological target: HLA-B*15:17; assay: as above; details: source organism: Influenza A virus (A/Yokohama/22/2002(H1N2))
[38] = biological target: HLA-A*29:02; assay: IEDB peptide-MHC binding, purified MHC/direct/fluorescence; filed as Kd, often an IC50 or EC50 that approximates it; ≥ and ≤ were set here for values at or beyond the usual limits of such assays; details: source organism: Influenza A virus (A/England/654/2007(H1N1))
[39] = biological target: HLA-A*02:19; assay: as above; details: source organism: Influenza A virus (A/England/654/2007(H1N1))
[40] = biological target: HLA-A*02:12; assay: as above; details: source organism: Influenza A virus (A/England/654/2007(H1N1))
[41] = biological target: HLA-A*02:11; assay: as above; details: source organism: Influenza A virus (A/England/654/2007(H1N1))
[42] = biological target: HLA-A*02:16; assay: as above; details: source organism: Influenza A virus (A/England/654/2007(H1N1))
[43] = biological target: HLA-A*68:02; assay: as above; details: source organism: Influenza A virus (A/England/654/2007(H1N1))
[44] = biological target: HLA-A*02:03; assay: as above; details: source organism: Influenza A virus (A/England/654/2007(H1N1))
[45] = source organism: Pseudomonas aeruginosa
[46] = source organism: Vibrio antiquarius
[47] = source organism: Toxoplasma gondii ME49
[48] = source organism: Yersinia enterocolitica
[49] = source organism: Burkholderia mallei ATCC 23344
[50] = source organism: Pseudomonas aeruginosa UCBPP-PA14
[51] = source organism: Salmonella enterica subsp. enterica serovar Typhi
[52] = source organism: Influenza A virus (A/Yokohama/22/2002(H1N2))
[53] = source organism: Influenza A virus (A/England/654/2007(H1N1))

- Kd [1, 45]: 12.6 µM
- Kd [2, 45]: ≥ 20 µM
- Kd [3, 45]: ≥ 10 µM
- Kd [4, 45]: ≥ 20 µM
- Kd [5, 45]: ≥ 20 µM
- Kd [6]: ≥ 20 µM
- Kd [7, 45]: ≥ 20 µM
- Kd [8, 45]: 1.95 µM
- Kd [9, 45]: ≥ 20 µM
- Kd [10, 45]: ≥ 20 µM
- Kd [11, 45]: ≥ 20 µM
- Kd [12, 45]: ≥ 20 µM
- Kd [13, 45]: ≥ 20 µM
- Kd [14, 45]: ≥ 20 µM
Sequence: DLPPAIAAE

Sequence: FDLFGITLY
- Kd [15, 46]: ≥ 20 µM
- Kd [16]: ≥ 20 µM
- Kd [17]: ≥ 20 µM
- Kd [18, 46]: ≥ 20 µM
- Kd [19, 46]: ≥ 20 µM
- Kd [20, 46]: ≥ 20 µM
- Kd [21]: ≥ 20 µM
- Kd [22, 46]: ≥ 20 µM
- Kd [23]: ≥ 20 µM
- Kd [24, 46]: ≥ 20 µM
- Kd [25, 46]: ≥ 20 µM
- Kd [26, 46]: ≥ 20 µM
- Kd [27, 46]: ≥ 20 µM
- Kd [28, 46]: ≥ 20 µM
- Kd [29]: ≥ 20 µM
- Kd [30]: ≥ 20 µM
- Kd [31, 46]: 0.279 µM

Sequence: FGGGPWWEV
- Kd [27, 47]: 0.0084 µM
- Kd [28, 47]: 0.0122 µM

Sequence: GYGRVNAGK
- Kd [1, 48]: 9.1 µM
- Kd [2, 48]: ≥ 20 µM
- Kd [3, 48]: ≥ 20 µM
- Kd [4, 48]: ≥ 20 µM
- Kd [5, 48]: ≥ 20 µM
- Kd [32, 48]: 10.3 µM
- Kd [7, 48]: ≥ 20 µM
- Kd [8, 48]: ≥ 20 µM
- Kd [9, 48]: ≥ 20 µM
- Kd [10, 48]: ≥ 20 µM
- Kd [33]: ≥ 20 µM
- Kd [11, 48]: 6.54 µM
- Kd [12, 48]: ≥ 20 µM
- Kd [13, 48]: ≥ 20 µM
- Kd [14, 48]: ≥ 20 µM

Sequence: PFFFGFSHF
- Kd [32, 49]: 0.704 µM
- Kd [34, 49]: 0.024 µM

- Kd [1, 45]: 12 µM
- Kd [2, 50]: ≥ 20 µM
- Kd [3, 50]: ≥ 20 µM
- Kd [4, 50]: ≥ 20 µM
- Kd [5, 50]: ≥ 20 µM
- Kd [32, 50]: ≥ 20 µM
- Kd [6]: 0.052 µM
- Kd [7, 45]: 0.252 µM
- Kd [8, 50]: ≥ 20 µM
- Kd [9, 50]: ≥ 20 µM
- Kd [10, 50]: ≥ 20 µM
- Kd [11, 45]: 0.197 µM
- Kd [12, 50]: ≥ 20 µM
- Kd [13, 50]: ≥ 20 µM
- Kd [14, 50]: ≥ 20 µM
Sequence: RTGTRLLGR

Sequence: WLMKYPYQL
- Kd [22, 51]: ≤ 0.001 µM
- Kd [28, 51]: 0.0002 µM
- Kd [35]: 0.0886 µM

Sequence: WTGMVDGWY
- Kd [15, 52]: ≥ 20 µM
- Kd [36]: 0.0103 µM
- Kd [18, 52]: ≥ 20 µM
- Kd [19, 52]: ≥ 20 µM
- Kd [20, 52]: ≥ 20 µM
- Kd [22, 52]: ≥ 20 µM
- Kd [24, 52]: ≥ 20 µM
- Kd [37]: ≥ 20 µM
- Kd [25, 52]: ≥ 20 µM
- Kd [26, 52]: ≥ 20 µM
- Kd [28, 52]: ≥ 20 µM
- Kd [31, 52]: ≥ 20 µM
- Kd [38]: ≥ 20 µM
- Kd [39]: ≥ 20 µM
- Kd [40]: ≥ 20 µM
- Kd [41]: ≥ 20 µM
- Kd [32, 53]: ≥ 20 µM
- Kd [34, 53]: ≥ 20 µM
- Kd [7, 53]: ≥ 20 µM
- Kd [42]: ≥ 20 µM
- Kd [43]: ≥ 20 µM
- Kd [44]: ≥ 20 µM
